In patent US12565506B2, “Nitrogen-containing macrocyclic conjugates as radiopharmaceuticals” (Clarity Pharmaceuticals Ltd., priority 2008, dated 2026):

Assay: Serum stability of 64Cu-labelled Sar-peptides by radio-HPLC
Format: in vitro ADME
Details: human male AB serum, 37° C.
Protocol: Human male AB serum (200 μL) was added to a solution of [^64CuL^1-Tyr^3-octreotate]^2+ (200 μL). This solution was incubated in a water bath at 37° C. At time points of 1 hr, 4 hr and 20 hr an aliquot of this serum solution (100 μL) was removed for radio-HPLC analysis: acetonitrile (200 μL) was added to the serum aliquot to precipitate serum proteins. This mixture was filtered and the acetonitrile evaporated under a stream of argon gas. The final volume was <100 μL. The solution was frozen at −70° C. until injection onto the HPLC column. 1 hr: Retention time 12.716 min, >95% radiochemical yield; 4 hr: Retention time 12.725 min, >95% radiochemical yield; 20 hr: Retention time 12.800 min, >95% radiochemical yield.
A single time point serum stability study for [^64CuL^1-Lys3-bombesin]^2+ was conducted in the same way as studies for [^64CuL^1-Tyr^3-octreotate]^2+. An aliquot of [^64CuL^1-Lys3-bombesin]^2+ (200 μL) was added to human male AB serum and incubated at 37° C. After 2 hr, the sample was subjected to the same treatment as described above and injected onto the HPLC column. 2 hr: Retention time 12.828 min, >95% radiochemical yield.

SMILES	radiochemical yield (intact complex by radio-HPLC) after incubation in serum (2 hr)	radiochemical yield (intact complex by radio-HPLC) after incubation in serum (1 hr)	radiochemical yield (intact complex by radio-HPLC) after incubation in serum (4 hr)	radiochemical yield (intact complex by radio-HPLC) after incubation in serum (20 hr)
CSCC[C@H](NC(=O)[C@H](CC(C)C)NC(=O)[C@H](Cc1c[nH]cn1)NC(=O)CNC(=O)[C@@H](NC(=O)[C@H](C)NC(=O)[C@H](Cc1c[nH]c2ccccc12)NC(=O)[C@H](CCC(N)=O)NC(=O)[C@H](CC(N)=O)NC(=O)CNC(=O)[C@H](CC(C)C)NC(=O)[C@H](CCCCNC(=O)CCCC(=O)NC12CNCCNCC(N)(CNCCNC1)CNCCNC2)NC(=O)[C@H](CCC(N)=O)NC(=O)[C@@H]1CCC(=O)N1)C(C)C)C(N)=O (64Cu complex, metal not drawn) [[^64CuL^1-Lys3-bombesin]^2+]	> 95%			
CC(O)[C@H](NC(=O)C1CSSC[C@H](NC(=O)[C@@H](Cc2ccccc2)NC(=O)CCCC(=O)N[C@]23CNCCNC[C@]4(N)C[N]5CC[N](C2)[Cu]52([CH3])([CH3])[N](CC[N]2C3)C4)C(=O)N[C@@H](Cc2ccc(O)cc2)C(=O)N[C@H](Cc2c[nH]c3ccccc23)C(=O)N[C@@H](CCCCN)C(=O)N[C@@H](C(C)O)C(=O)N1)C(=O)O (stereo partly shown) [[^64CuL^1-Tyr^3-octreotate]^2+]		> 95%	> 95%	> 95%
